Measured values as given in paper PMC8546710.

Key:
[1] = molecular target: CDV M protein (strain A75/17) mutant G245P (canine distemper virus, strain A75/17); assay: co-IP; FLAG-M and 2×HA-longlinker-M, both bearing the same mutation, cotransfected in HEK-293T; lysed 24 h posttransfection in 50 mM Tris pH 7.4, 150 mM NaCl, 0.05% NP-40, 5% glycerol, 20 mM sodium molybdate; IP with anti-HA (16B12) and Dynabeads Protein G at 4°C; blot with polyclonal anti-CDV M; coIP efficiency index = (coIP/IP)/(ratio in total lysates), normalised to wt = 100%
[2] = molecular target: CDV M protein (strain A75/17) mutant K238E (canine distemper virus, strain A75/17); assay: as above
[3] = molecular target: CDV M protein (strain A75/17) mutant A94S; assay: coimmunoprecipitation (coIP efficiency index, Western blot band quantification); conditions: 2xHA-M and FLAG-M co-expressed in HEK-293T cells; IP anti-HA, IB anti-M; parent: est. 100; read off a plot
[4] = molecular target: CDV M protein (strain A75/17) mutant D235N; assay: as above; conditions: 2xHA-M and FLAG-M co-expressed in HEK-293T cells; IP anti-HA, IB anti-M; parent: est. 100; read off a plot
[5] = molecular target: CDV M protein (strain A75/17) mutant E89D; assay: as above; conditions: 2xHA-M and FLAG-M co-expressed in HEK-293T cells; IP anti-HA, IB anti-M; parent: est. 100; read off a plot
[6] = molecular target: CDV M protein (strain A75/17) mutant E89G; assay: as above; conditions: 2xHA-M and FLAG-M co-expressed in HEK-293T cells; IP anti-HA, IB anti-M; parent: est. 100; read off a plot
[7] = molecular target: CDV M protein (strain A75/17) mutant E89H; assay: as above; conditions: 2xHA-M and FLAG-M co-expressed in HEK-293T cells; IP anti-HA, IB anti-M; parent: est. 100; read off a plot
[8] = molecular target: CDV M protein (strain A75/17) mutant E89K; assay: as above; conditions: 2xHA-M and FLAG-M co-expressed in HEK-293T cells; IP anti-HA, IB anti-M; parent: est. 100; read off a plot
[9] = molecular target: CDV M protein (strain A75/17) mutant E89R; assay: as above; conditions: 2xHA-M and FLAG-M co-expressed in HEK-293T cells; IP anti-HA, IB anti-M; parent: est. 100; read off a plot
[10] = molecular target: CDV M protein (strain A75/17) mutant E89Y; assay: as above; conditions: 2xHA-M and FLAG-M co-expressed in HEK-293T cells; IP anti-HA, IB anti-M; parent: est. 100; read off a plot
[11] = molecular target: CDV M protein (strain A75/17) mutant E242Q; assay: as above; conditions: 2xHA-M and FLAG-M co-expressed in HEK-293T cells; IP anti-HA, IB anti-M; parent: est. 100; read off a plot
[12] = molecular target: CDV M protein (strain A75/17) mutant G245P; assay: as above; conditions: 2xHA-M and FLAG-M co-expressed in HEK-293T cells; IP anti-HA, IB anti-M; parent: est. 100; read off a plot
[13] = molecular target: CDV M protein (strain A75/17) mutant K92E; assay: as above; conditions: 2xHA-M and FLAG-M co-expressed in HEK-293T cells; IP anti-HA, IB anti-M; parent: est. 100; read off a plot
[14] = molecular target: CDV M protein (strain A75/17) mutant K238E; assay: as above; conditions: 2xHA-M and FLAG-M co-expressed in HEK-293T cells; IP anti-HA, IB anti-M; bar marked 'Poorly expressed'; parent: est. 100; read off a plot
[15] = molecular target: CDV M protein (strain A75/17) mutant K240Q; assay: as above; conditions: 2xHA-M and FLAG-M co-expressed in HEK-293T cells; IP anti-HA, IB anti-M; parent: est. 100; read off a plot
[16] = molecular target: CDV M protein (strain A75/17) mutant K243E; assay: as above; conditions: 2xHA-M and FLAG-M co-expressed in HEK-293T cells; IP anti-HA, IB anti-M; parent: est. 100; read off a plot
[17] = molecular target: CDV M protein (strain A75/17) mutant L96N; assay: as above; conditions: 2xHA-M and FLAG-M co-expressed in HEK-293T cells; IP anti-HA, IB anti-M; parent: est. 100; read off a plot
[18] = molecular target: CDV M protein (strain A75/17) mutant L239D; assay: as above; conditions: 2xHA-M and FLAG-M co-expressed in HEK-293T cells; IP anti-HA, IB anti-M; parent: est. 100; read off a plot
[19] = molecular target: CDV M protein (strain A75/17) mutant P87A; assay: as above; conditions: 2xHA-M and FLAG-M co-expressed in HEK-293T cells; IP anti-HA, IB anti-M; parent: est. 100; read off a plot
[20] = molecular target: CDV M protein (strain A75/17) mutant Y236F; assay: as above; conditions: 2xHA-M and FLAG-M co-expressed in HEK-293T cells; IP anti-HA, IB anti-M; parent: est. 100; read off a plot

With “CDV M protein (strain A75/17) mutant G245P (natural protein)” the coIP efficiency index (normalised to wt) [1] was 3.8%.
“CDV M protein (strain A75/17) mutant K238E (natural protein)” gave a coIP efficiency index (normalised to wt) [2] of 9.7%.
“canine distemper virus (CDV) matrix (M) protein, strain A75/17, wild type A94S” gave a percent of parent (percent to wt) [3] of 98.
For “canine distemper virus (CDV) matrix (M) protein, strain A75/17, wild type D235N”, the percent of parent (percent to wt) [4] was 120.
For “canine distemper virus (CDV) matrix (M) protein, strain A75/17, wild type E89D”, the percent of parent (percent to wt) [5] was 80.
“canine distemper virus (CDV) matrix (M) protein, strain A75/17, wild type E89G” was tested, and the percent of parent (percent to wt) [6] was 47.
Work on “canine distemper virus (CDV) matrix (M) protein, strain A75/17, wild type E89H” yielded a percent of parent (percent to wt) [7] of 98.
With “canine distemper virus (CDV) matrix (M) protein, strain A75/17, wild type E89K” the percent of parent (percent to wt) [8] was 83.
Substance “canine distemper virus (CDV) matrix (M) protein, strain A75/17, wild type E89R” has a percent of parent (percent to wt) [9] of 77.
“canine distemper virus (CDV) matrix (M) protein, strain A75/17, wild type E89Y” was tested, and the percent of parent (percent to wt) [10] was 91.
“canine distemper virus (CDV) matrix (M) protein, strain A75/17, wild type E242Q” was tested, and the percent of parent (percent to wt) [11] was 150.
Work on “canine distemper virus (CDV) matrix (M) protein, strain A75/17, wild type G245P” yielded a percent of parent (percent to wt) [12] of 4.
Work on “canine distemper virus (CDV) matrix (M) protein, strain A75/17, wild type K92E” yielded a percent of parent (percent to wt) [13] of 87.
“canine distemper virus (CDV) matrix (M) protein, strain A75/17, wild type K238E” showed a percent of parent (percent to wt) [14] of 9.
With “canine distemper virus (CDV) matrix (M) protein, strain A75/17, wild type K240Q” the percent of parent (percent to wt) [15] was 100.
Work on “canine distemper virus (CDV) matrix (M) protein, strain A75/17, wild type K243E” yielded a percent of parent (percent to wt) [16] of 97.
For “canine distemper virus (CDV) matrix (M) protein, strain A75/17, wild type L96N”, the percent of parent (percent to wt) [17] was 96.
For “canine distemper virus (CDV) matrix (M) protein, strain A75/17, wild type L239D”, the percent of parent (percent to wt) [18] was 110.
“canine distemper virus (CDV) matrix (M) protein, strain A75/17, wild type P87A” was tested, and the percent of parent (percent to wt) [19] was 120.
For “canine distemper virus (CDV) matrix (M) protein, strain A75/17, wild type Y236F”, the percent of parent (percent to wt) [20] was 84.
